Assays:
Assay in all cases: radioligand binding
A265V-EGF receptor = A265V-EGF receptor (UniProt P00533)
G574V-EGF receptor = G574V-EGF receptor (UniProt P00533)
R84K-EGF receptor = R84K-EGF receptor (UniProt P00533)
wild-type EGF receptor = wild-type EGF receptor (UniProt P00533)

Substance: 125I-EGF (ligand)
- EC50 (A265V-EGF receptor): 0.28 nM
- EC50 (G574V-EGF receptor): 0.17 nM
- EC50 (R84K-EGF receptor): 0.036 nM
- EC50 (wild-type EGF receptor): 0.75 nM

From article PMC10945275
